Experimental data taken from patent publication US7932226B2, “NFκB transcriptional activity inhibitory agent and anti-inflammatory agent and a steroid action enhancing agent” (St. Marianna University School of Medicine, priority 2004, dated 2011).
Values belong to the molecule of their own block, whether it stands above or below them.

How the values were obtained:
[1] = test system: transcriptional activity of NFκB; test: NFκB-dependent luciferase assay in transfected COS-7 cells, TNFα-induced; format: cell-based
Method: COS-7 cells were plated into a 6-well plate (Falcon, catalog number: 35-3046) at 3.5 to 3.8×10^5 cells per well and cultured in a DMEM supplemented with 10% 56° C.-inactivated FBS (fetal bovine serum; HyClone, catalog number: SH30070.03) under the conditions of 5% CO2 and 37° C. After 18 hours, the medium was replaced with a DMEM containing charcoal-dextran treated (C/D treatment) FBS (C/D-FBS, HyClone, catalog number: SH30068.03). Each of the plasmids constructed in Example 2 was mixed as shown in Table 1 and each sample was prepared to be 4.12 μg and each was mixed with TransFast (product name) reagent (12.3 μl) and the mixture was incubated for 10 to 15 minutes. After the medium in each well was replaced, each plasmid DNA was added to the respective wells according to the amount shown in Table 1 and incubation was carried out for 1 hour, thus each DNA was transfected into COS-7 cells. The transfection efficiency was 34%. To the cells into which DNA was transfected as described above, after 24 hours, an inflammatory cytokine (TNFα, Sigma) at a final concentration of 1 ng/ml and a steroid agent (triamcinolone acetonide: TA, Sigma) at a final concentration of 120 nM were added. Further, after an additional 24 hours, luciferase activities in the cells were assayed using Dual Luciferase Assay System (Promega) by a luminometer (Turner BioSystems TD-20/20, Promega). The results are shown in FIG. 1, In FIG. 1, the luciferase activities indicating the transcriptional activity of NFκB is indicated on the vertical axis. The closed circles show the case where only TNFα was added, the closed triangles show the case where both TNFα and TA were added, the open triangles show the case where only TA was added and the open circles show the case where neither of TNFα nor TA was added, respectively.

[2] = MTI-II peptide administration experiment (behaviour and autopsy observation); format: in vivo; details: 10 mg/kg intraperitoneal, ICR mice
Method: MTI-II of SEQ ID NO: 1 (Gene Bank Accession No. M24398) was purified in accordance with the purification method described in the document (Eur. J. Biochem., (2000), 267, 155-162). It was dissolved in physiological saline at a concentration of 1.0 mg/ml and intraperitoneally administered to 5 male (an average body weight of 28.4 g) and 5 female (an average body weight of 25.0 g) ICR mice at 5 weeks of age at 10 mg/kg of body weight. As a control, physiological saline was administered to 2 male and 2 female ICR mice of the same age. […] At 24 hours after the administration, they were sacrificed and autopsy was carried out and the swelling of the liver, kidney, spleen, small intestine, large intestine and thymus and the swelling of the blood vessels in the abdominal cavity were observed by the naked eye. As a result, behavioral anomaly and the swelling of the liver, kidney, spleen, small intestine, large intestine, thymus and blood vessels were not observed in all specimens.

[3] = test system: transcriptional activity of NFκB; test: NFκB luciferase assay in the presence of coactivator p300; format: cell-based
Method: Then, in order to confirm the action site of MTI-II, the effect of MTI-II was investigated when a coactivator p300, which acts on the transcriptional activity of NFκB, was expressed.
A coactivator p300 expression plasmid (pCMVβ-p300) was purchased from Upstate. DNA transfection was carried out in the same manner as in Example 3 except that the amount of DNA was each 2.0 μg and the amount of pTri-NC or pTri-MTI was 1.0 μg. The NFκB transcriptional activity assay was carried out in the same manner as in Example 4.

[4] = test system: transcriptional activity of NFκB; test: NFκB luciferase assay in HeLa cells with added His-tag-TAT-MTI-II protein; format: cell-based; details: protein 30-300 μg per well added 6 hours before TNFα 1 ng/ml
Method: HeLa cells were plated into a 6-well plate at 2.0×10^5 cells per well and cultured in a DMEM (HyClone) supplemented with 10% FBS (fetal bovine serum) for 18 hours. Thereafter, the medium was replaced with a medium containing charcoal-dextran treated (C/D treatment) FBS (C/D-FBS). Further, after an additional 24 hours, each plasmid DNA blended in accordance with the amount shown in the following Table 2 was added to the respective wells, and these HeLa cells were transfected with NFκB-Luc gene.
At 24 hours after the transfection, to the HeLa cells in each well, the His-tag-TAT-MTI-II fusion protein prepared in Example 7 was added according to the amount shown in Table 3, and 6 hours thereafter, an inflammatory cytokine (TNFα, Sigma) was further added thereto in an amount to give a concentration of 1 ng/ml. After 24 hours, in the same manner as in Example 4, luciferase activities in the cells were assayed using Dual Luciferase Assay System (Promega).

[5] = OVA-sensitized rabbit knee joint inflammation model; format: in vivo, New Zealand White rabbits; details: rabbits, 0.4 mg/ml in PBS into the right knee joint, 10 administrations in 14 days
Method: For primary sensitization, ovalbumin (OVA)+Freund's complete adjuvant (FCA) was intradermally injected once in the dorsal area of three New Zealand White rabbits. After 2 weeks, for secondary sensitization, OVA+FCA was intradermally administered once in the dorsal area. Further, for challenge administration, at 5 days after the secondary sensitization, OVA was administered once into the right knee joint. A His-tag-TAT-MTI-II solution (at 0.4 mg/ml in PBS solution) was administered into the right knee joint every other day starting from one day before the challenge administration of OVA. Incidentally, during 5 days from the next day of the challenge administration of OVA, the His-tag-TAT-MTI-II solution was administered once daily. The administration period was 14 days (number of administration: 10 times in total), and in a control group, PBS was administered into the right knee joint. An anti-inflammatory action was examined based on the blood sedimentation rate measurement and the pathological specimens of both knee joints.

Molecule: TNFα [reference compound]
- luciferase activity (transcriptional activity of NFκB) versus no TNFα ([1]; TNFα 1 ng/ml only, MTI-II 0 μg): about 10 times

- transcriptional activity of NFκB compared with the case where MTI-II was not expressed ([3]; MTI-II expressed together with p300, TNFα (pTri-MTI 1.0 μg)): inhibited to about half or more
- transcriptional activity of NFκB compared with the case where MTI-II was not expressed ([3]; MTI-II expressed together with p300, TNFα, steroid agent further added): inhibited to about half or more
- transcriptional activity of NFκB compared with the absence of the coactivator ([3]; MTI-II with p300, TNFα, used together with the steroid agent): inhibited to about half
B1: MTI-II: 102 amino acid polypeptide (SEQ ID NO: 2), same sequence as parathymosin; encoded by SEQ ID NO: 1 (protein, listed as Homo sapiens)
chain: MSEKSVEAAAELSAKDLKEKKDKVEEKAGRKERKKEVVEEEENGAEEEEEETAEDGEDDDEGDEEDEEEEEEEDEGPVRKRTAEEEDEADPKRQKTENGASA
- swelling of the liver, kidney, spleen, small intestine, large intestine, thymus and blood vessels ([2]; autopsy at 24 hours, naked eye): not observed
- behavioral anomaly ([2]; observed for 24 hours): not observed
- transcriptional activity of NFκB ([1]; TNFα 1 ng/ml, MTI-II expressed (0-3.0 μg vector)): inhibited depending on the amount of MTI-II
- NFκB transcriptional activity ([1]; TNFα, simultaneous use of MTI-II and the steroid agent (TA 120 nM)): inhibited further more

B2: His-tag-TAT-MTI-II: His-tag-TAT-MTI-II fusion protein (SEQ ID NO: 11) expressed in E. coli (protein)
chain: MAHHHHHHSLVPRGSRRRQRRKKRGLQMSEKSVEAAAELSAKDLKEKKDKVEEKAGRKERKKEVVEEEENGAEEEEEETAEDGEDDDEGDEEDEEEEEEEDEGPVRKRTAEEEDEADPKRQKTENGASA
modifications: HisTag-TAT-MTI-II
- transcriptional activity of NFκB [4]: inhibited depending on the amount of TAT-MTI-II
- anti-inflammatory action (blood sedimentation rate, pathological specimens of knee joints) [5]: anti-inflammatory effect
